Assay: yeast display, Sf9 membrane polyspecificity reagent, FACS + sequencing; frameworks hold sequencing errors
Summary of the method: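 Galactose induction of a Saccharomyces cerevisiae BJ5465 synthetic nanobody display library ran 36–48 hours. The cells were then stained for 1 hour at 4 °C with 10% biotinylated, detergent-solubilized Sf9 membrane reagent, pulled down on streptavidin microbeads and FACS-sorted into low and high (top ~1%) gates on expression and reagent-binding fluorescence. Labels for polyreactivity follow the gate of origin.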

Sequence | polyreactivity (PSR sort gate)
QVQLVESGGGLVQAGGSLRLSCAASGRTFIPYAMGWYRQAPGKERELVATIRRGGSTYYADSVKGSFTISRDNAKNTVYLQMNSLKPEDTAVYYCAATRYSFGPRRVDYWGQGTQVSVSS | high polyreactivity
QVQLVESGGGLVQAGGSLRLSCAASGRTFISYAMGWYRQAPGKERELVAAISSSGGSTYYADSVKGRFTISRDNAKNTVYLQMNSLIPEDTAVYYCNADSSASTYTFPFDYWGQGTQVTVSS | low polyreactivity
QVQLVESGGGLVQAGGSLRLSCAASGRTFISYAMGWYRQAPGKERELVAGISRGGSTYYADSVKGRFTISRDNAMNTVYLQMNRLKPEDTAVYYCAARRWISSHSYKYGYWGQGTQVTVSS | high polyreactivity
QVQLVESGGGLVQAGGSLRLSCAASGRTFITNAMGRNRQAPGKERELVARISSDGSTYYADSVKGRFTISRDNAKNTVYLQMNSLKPEDTAVYYCNKEFLRRQLFTFWHLGGYWGQVTQVTVSS | low polyreactivity
QVQLVESGGGLVQAGGSLRLSCAASGRTFITYAMGWYRQAPGKERELVAAISWNGGTTYYADSVKGRFTISRDNAKNTVYLQMNSLKPEDTAVYYCAAYRWYSAARMGYWGQGTQVTVSS | high polyreactivity
QVQLVESGGGLVQAGGSLRLSCAASGRTFIYYAMGWSRQAPGKERELVAGISRNGGRTYYADSVKGRFTISRDNAKNTVYLQMNSLKPEDTAVYYCNAYPPSRHDYLGQGTQVTVSS | high polyreactivity
QVQLVESGGGLVQAGGSLRLSCAASGRTFIYYAMGWYRQAPGKERELVARIRANGVSTYYADSVKGRFTISRDNAKNTVYLQMNSLKPEDTAVYYCAKGYFPSQYEYWGQGTQVTVSS | high polyreactivity
QVQLVESGGGLVQAGGSLRLSCAASGRTFKAYAMGWYRQAPGKERELVAAITYSGGSTYYADSVKGRFTISRDNAKNTVYLQMNSLKPEDTAVYYCAASAQSRSRVKLYYWGQGTQVTVSS | high polyreactivity
QVQLVESGGGLVQAGGSLRLSCAASGRTFKDYAMGWYRQAPGKERELVAAISWSGGDTYYADSVKGRVTISRDNAKNTVYLQMNSLKPEDTAVYYCNADPSGVFFYSLEFDYWGQGTQVTVSS | low polyreactivity
QVQLVESGGGLVQAGGSLRLSCAASGRTFKHYAMGWYRPAPGKERELVAAITSGGSTYYADSVKGRFTISRDNAKNTVYLQMNSLKPEDTAVYYCNKESYFDTYRRYDSWGQGTQVTVSS | low polyreactivity
QVQLVESGGGLVQAGGSLRLSCAASGRTFKNNAMGWYRQAPGKERELVAAISSNGGSTYYADSVKGRFTISRDNAKNTVYLQMNSLKPEDTAVYYCAADRTIVEYYYWGQGTQVTVSS | high polyreactivity
QVQLVESGGGLVQAGGSLRLSCAASGRTFKNYAMGWYRQAPGKERELVAAISSGGGRTKYADSVKGRFTISRDNAKNSVYLQMNSLKPEDTAVYYCAAAYYYRDDYWGQGTQVTVSS | high polyreactivity
QVQLVESGGGLVQAGGSLRLSCAASGRTFKPYVMGWYRQAPGKERELVAAISSRGDITYYADSVKCRFTISRHNAKNTVYLHMNSLKPEDTAVYYCNAGPAVRSAYSTPYYDYWGQGTQVTVSS | low polyreactivity
QVQLVESGGGLVQAGGSLRLSCAASGRTFKRKAKGWYRQAPGKEWEFVAVITGSGGSTYYADSVKGRFTISRDNAKNTVYLQMNSLKPEDTAVYYCAAALGLRSTSWGRRGGGGDYWGQGTQVTVSS | high polyreactivity
QVQLVESGGGLVQAGGSLRLSCAASGRTFKRYAMGWYRQAPGKERELVAAITASGGNTYYADSVKGRFTISRDNAKNTVYLQMNSLKPEDTAVYYCNAVTSVQARPRNYYYWGQGTQVTVSS | high polyreactivity
QVQLVESGGGLVQAGGSLRLSCAASGRTFKRYAMGWYRQAPGKERELVATISGNGGRTYYADSVKGRFTISRDNAKNTVYLQMNSLKPEDTAVYYCAALLYIRSVGYDYWGQGTQVTVSS | low polyreactivity
QVQLVESGGGLVQAGGSLRLSCAASGRTFKSYAMGWNRQAPGQERELVATITRDGRTNYADSVKGRFTISRDNAKNTVYLQLNSLKPEDTAVYYCNADSRYRYDYWGQGTQVTVSS | low polyreactivity
QVQLVESGGGLVQAGGSLRLSCAASGRTFKTYAMGWYRQAPGKERELVAAISRDGRTYYADSVKGRFTISRDNAKNTVYLQMNSLKPEDTAVYYCNKRSYRKGDYWGQGTQVTVSS | low polyreactivity
QVQLVESGGGLVQAGGSLRLSCAASGRTFKTYAMGWYSQAPGKERELVAAISRDGRTYYADSVKGRFTISRDNAKNTVYLQMNSLKPEDTAVYYCNKRSYRKGDYWGQGTQVTVSS | low polyreactivity
QVQLVESGGGLVQAGGSLRLSCAASGRTFKWNAMGWYRPAPGKERELVAAISISAGSTYYADSVKGRFTISRDNAKKTVYLQMNSLKPEDTAVYYCNTKYVRFYSRMDSWGQGTQVTVSS | low polyreactivity
QVQLVESGGGLVQAGGSLRLSCAASGRTFKWYAMGLYRQAPGKEREFVAGISRGAGRTYYADSVKGRFTISRDNAKNTVYLQMNSLKPEDTAVYYCAAVPSYHSTSPFYYWGQGTQVTVSS | high polyreactivity

Sequence | polyreactivity (PSR sort gate)
QVQLVESGGGLVQAGGSLRLSCAASGRTFKYNAMGWYRQAPGKERELVAAITRSGSTYYADSVKGRFTISRDNAKNTVYLQMNSLKPEDTAVYYCNARIVNYGSYYYWGQGTQVTVSS | high polyreactivity
QVQLVESGGGLVQAGGSLRLSCAASGRTFKYNAMGWYRQAPGKERELVAVIRYSGGTTYYADSVKGRFTISRDNAKNTVYLQMNSLKPEDTAVYYCARGFTYQYSSFYYWGQGTQVTVSS | low polyreactivity
QVQLVESGGGLVQAGGSLRLSCAASGRTFKYNAMGWYRQAPGKERELVAVIRYSGGTTYYADSVKGRVTISRDNAKNTVYLQMNSLKPEDTAVYYCAADSWSRSVNYYYWGQGTQVTVSS | low polyreactivity
QVQLVESGGGLVQAGGSLRLSCAASGRTFKYNTMGWYRQAPGKERELVAVISRSGGRTYYADSVKGRFTISRDNAKNTVYLQMNSLKPEDTAVYYCAARARGNDGYYWGQGTQVTVSS | high polyreactivity
QVQLVESGGGLVQAGGSLRLSCAASGRTFKYYAKGWYRQAPGKERELVAAINSGGITYYADTVKGRFTISRDNEKNTVYLQRNSLKAEDTAVYYCAKVWKIGVLRYPSYGYYYWGQGTQVTVSS | high polyreactivity
QVQLVESGGGLVQAGGSLRLSCAASGRTFKYYAMGWYRPAPGKERELVAAISYNGGSTFYADSVKGRFTISRDNAKNTVYLQMNSLKPEDTAVYYCAAGPRGTGKYYWGQGTQVTVSS | high polyreactivity
QVQLVESGGGLVQAGGSLRLSCAASGRTFKYYAMGWYRQAPGKERELVAAISVSGGRTYYADSVKGRFTISRDNAKNTVYLQMNSLKPEDTAVYYCNAVRYVHPEDYWGQGTQVTVSS | high polyreactivity
QVQLVESGGGLVQAGGSLRLSCAASGRTFKYYAMGWYRQAPGKERELVAAITRSGSTNYADSVKGRFTISRDNAKNSVYLQMNSLKPEDTAVYYCAADVTLYYRGRRYYYWGQGTQVTVSS | high polyreactivity
QVQLVESGGGLVQAGGSLRLSCAASGRTFKYYAMGWYRQAPGKERELVAASTTGGSTHYADSVKGRFTISRDNAKNTVYLQMNSLKPEDTAVYYCAAGPFARYDYWGQGTQVTVSS | low polyreactivity
QVQLVESGGGLVQAGGSLRLSCAASGRTFKYYGMGWYRQAPGKERELVATISRSSSRTYYADSVKGRFTISRDNAKNTVYLQMNSLKPEDTAFYYCATLGPRSYAYDYWGQGTQVTVSS | high polyreactivity
QVQLVESGGGLVQAGGSLRLSCAASGRTFLAMGWYRQAPGKERELVAAISRTNYADSVKGRFTISRDNAKNTVYLQMNSLKPEDTAVYYCAKEYYSYEVYLGLSYVRRYDYWGQGTQVTVSS | low polyreactivity
QVQLVESGGGLVQAGGSLRLSCAASGRTFLFYAMGWYRQAPGKERELVAAIRRGGSTYYADSVKGRFTISRDNAKNTVYLQMNSLKPEDTAVYYCNAGSALRRSYYRYYYWGQGTQVTVSS | high polyreactivity
QVQLVESGGGLVQAGGSLRLSCAASGRTFLGNAMGWYRQAPGKERELVAAIRYSGGRTYYADSVKGRFTISRDNAKNTVYLQMNSLKPEDTAVYYCAKDRRYYKAYDYWGQGTQVTVSS | low polyreactivity
QVQLVESGGGLVQAGGSLRLSCAASGRTFLGYAMGWYRQAPGKERELVAAISYSGSSTYYADSVKGRFTISRDNAKNTVYLQMNSLKPEDTAVYYCAAQFYFLFDYWGQGTQVTVSS | low polyreactivity
QVQLVESGGGLVQAGGSLRLSCAASGRTFLLYAMGWYRQAPGKERELVASITSDGRTNYADSVKGRFSISRDNAKNTVYLHMNSLKPEDTADYYCATVGKVHHRLVAMDYWGQGTQVTVSS | low polyreactivity
QVQLVESGGGLVQAGGSLRLSCAASGRTFLPYAMGWYRQAPGKERELVAAITYSGGRTYYADSVKGRFTISRDNAKNTVYLQMNSLKPEDTAVYYCAASLWFGGGYWGLGTQVTVSS | high polyreactivity
QVQLVESGGGLVQAGGSLRLSCAASGRTFLQYAMGWYRQAPRQERDLFATISFSGGSTYYADSVKGRITISRDNAKNTVYLLMNSLKPEDTAVYDCAKSQYRGRVYTGYDYWGQGTQVTVSA | low polyreactivity
QVQLVESGGGLVQAGGSLRLSCAASGRTFLRNAMGWYRQAPGKEREFVAAISTRDGRTYYADSVKGRFTISRDNAKNTVYLQMNSLKPEDTAVYYCNAVNTAGYYYYYAFFWDYDYWGQGTQVTVSS | high polyreactivity
QVQLVESGGGLVQAGGSLRLSCAASGRTFLRYAMGWYRQAPGKERELVAAITSSGGSTFYADSVKGRFTISRDNAKNTVYLQMNSLKPEDSAVYYCAASVGRGYYWGQGTQVTVSS | high polyreactivity
QVQLVESGGGLVQAGGSLRLSCAASGRTFLRYAMGWYRQAPGKERELVAAITYGGRTNYADSVKGRFTISRDNAKNTVYLQMNSLKPEDTAVYYCAADRTYYYGMRVDYWGQGTQVTVSS | high polyreactivity
